Residue numbers refer to the chain shown, from its start. Names may count otherwise.
B1: C82A (protein, UniProt Q8IWS0 2-365, looked up, variant C82A)
PHD finger protein 6: SSSVEQKKGPTRQRKCGFCKSNRDKECGQLLISENQKVAAHHKCMLFSSALVSSHSDNESLGGFSIEDVQKEIKRGTKLMASLCHCPGATIGCDVKTCHRTYHYHCALHDKAQIREKPSQGIYMVYCRKHKKTAHNSEADLEESFNEHELEPSSPKSKKKSRKGRPRKTNFKGLSEDTRSTSSHGTDEMESSSYRDRSPHRSSPSDTRPKCGFCHVGEEENEARGKLHIFNAKKAAAHYKCMLFSSGTVQLTTTSRAEFGDFDIKTVLQEIKRGKRMKCTLCSQPGATIGCEIKACVKTYHYHCGVQDKAKYIENMSRGIYKLYCKNHSGNDERDEEDEERESKSRGKVEIDQQQLTQQQLNGN
B2: M125A (protein, UniProt Q8IWS0 2-365, looked up, variant M125A)
PHD finger protein 6: B1 PHD finger protein 6 with A81C, M124A
B3: R129A (protein, UniProt Q8IWS0 2-365, looked up, variant R129A)
PHD finger protein 6: B1 PHD finger protein 6 with A81C, R128A
B4: PHF6 WT: PHF6 WT expressed as GST fusion protein in E. coli Rosetta (DE3) cells (protein)
chain: MSSSVEQKKGPTRQRKCGFCKSNRDKECGQLLISENQKVAAHHKCMLFSSALVSSHSDNESLGGFSIEDVQKEIKRGTKLMCSLCHCPGATIGCDVKTCHRTYHYHCALHDKAQIREKPSQGIYMVYCRKHKKTAHNSEADLEESFNEHELEPSSPKSKKKSRKGRPRKTNFKGLSEDTRSTSSHGTDEMESSSYRDRSPHRSSPSDTRPKCGFCHVGEEENEARGKLHIFNAKKAAAHYKCMLFSSGTVQLTTTSRAEFGDFDIKTVLQEIKRGKRMKCTLCSQPGATIGCEIKACVKTYHYHCGVQDKAKYIENMSRGIYKLYCKNHSGNDERDEEDEERESKSRGKVEIDQQQLTQQQLNGN
modifications: labeled with the dye NT-647 (Cy5), in the MST only; left off: GST, end not stated, kept
B5: E223S: H2BK12Ac unrecognizable MT of extended PHD2 (protein)
chain: B4 chain with E223S
modifications: labeled with the dye NT-647 (Cy5), in the MST only; left off: GST, end not stated, kept

Key:
GST-PHF6 WT = GST-PHF6 WT (UniProt Q8IWS0); assay: MST
[1] = system: H2BK120 of H2B WT-containing mono-nucleosomes; assay: In vitro ubiquitination assay, H2B-Flag WT mono-nucleosomes; assay type: biochemical; details: GST-PHF6 WT/MTs as E3; E1, E2, ubiquitin, 50 μM ZnCl2; 37°C, 1 h

| fold higher affinity than for the H2B WT peptide (GST-PHF6 WT) [fold] | Molecule | E3 ubiquitin ligase activity for H2BK120 [1] |
| --- | --- | --- |
| 5 | H2B peptide (1:20) with K12Ac modification |  |
|  | B1 | neither C82A (functional activity dead MT of extended PHD1 by disrupting Zinc ion capturing) nor E223S (H2BK12Ac unrecognizable MT of extended PHD2) were able to ubiquitinate H2BK120 |
|  | B2 | indispensable for E3 ligase activity of PHF6 |
|  | B3 | indispensable for E3 ligase activity of PHF6 |
|  | B4 | able to ubiquitinate H2BK120 |
|  | B5 | neither C82A (functional activity dead MT of extended PHD1 by disrupting Zinc ion capturing) nor E223S (H2BK12Ac unrecognizable MT of extended PHD2) were able to ubiquitinate H2BK120 |

— PMC7498345 (Nucleic Acids Research, 2020)
